From the supplement of paper PMC10567573

B1: FAM50A (parent)
chain: KKREKQREQMEQMKQRIAEENIMK

Variants of: B1
Assay: protein stability index of a GFP-peptide fusion (GPS, HEK-293T) (PSI 1-6); higher = more stable
Conditions: c terminus: a fixed tail appended
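Further: lentivirally expressed fusions sorted by FACS into six bins by GFP to DsRed ratio, PSI derived from sequencing read proportions per bin multiplied by bin number.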

First: KKYEKQREQMEQMKQRIAEENIMK [R3Y]
Second: KKNEKQREQMEQMKQRIAEENIMK [R3N]
The protein stability index of the first is lower: 4.04 for the first, 5.08 for the second.

Compared with KKPEKQREQMEQMKQRIAEENIMK [R3P], KKHEKQREQMEQMKQRIAEENIMK [R3H] is lower in protein stability index: 5.26 for the first, 4.65 for the second.

Compared with KKWEKQREQMEQMKQRIAEENIMK [R3W], KKVEKQREQMEQMKQRIAEENIMK [R3V] is higher in protein stability index: 4.25 for the first, 5.21 for the second.

First: KKGEKQREQMEQMKQRIAEENIMK [R3G]
Second: KKFEKQREQMEQMKQRIAEENIMK [R3F]
The protein stability index of the first is higher: 5.18 for the first, 4.61 for the second.

Going from KKKEKQREQMEQMKQRIAEENIMK [R3K] to KKSEKQREQMEQMKQRIAEENIMK [R3S], the protein stability index falls from 5.06 to 4.78.

Going from KKIEKQREQMEQMKQRIAEENIMK [R3I] to KKCEKQREQMEQMKQRIAEENIMK [R3C], the protein stability index falls from 5.16 to 4.91.

First: KKAEKQREQMEQMKQRIAEENIMK [R3A]
Second: KKEEKQREQMEQMKQRIAEENIMK [R3E]
The protein stability index of the first is lower: 5.17 for the first, 5.29 for the second.

Compared with KKQEKQREQMEQMKQRIAEENIMK [R3Q], KKDEKQREQMEQMKQRIAEENIMK [R3D] is lower in protein stability index: 5.48 for the first, 5.11 for the second.

First: KKTEKQREQMEQMKQRIAEENIMK [R3T]
Second: KKMEKQREQMEQMKQRIAEENIMK [R3M]
The protein stability index of the first is higher: 5.2 for the first, 5.04 for the second.

Going from KKLEKQREQMEQMKQRIAEENIMK [R3L] to KVREKQREQMEQMKQRIAEENIMK [K2V], the protein stability index falls from 4.93 to 4.52.

First: KWREKQREQMEQMKQRIAEENIMK [K2W]
Second: KPREKQREQMEQMKQRIAEENIMK [K2P]
The protein stability index of the first is lower: 4.58 for the first, 5.22 for the second.

Going from KNREKQREQMEQMKQRIAEENIMK [K2N] to KQREKQREQMEQMKQRIAEENIMK [K2Q], the protein stability index falls from 4.94 to 4.75.

First: KSREKQREQMEQMKQRIAEENIMK [K2S]
Second: KYREKQREQMEQMKQRIAEENIMK [K2Y]
The protein stability index of the first is higher: 5.01 for the first, 4.22 for the second.

Going from KTREKQREQMEQMKQRIAEENIMK [K2T] to KRREKQREQMEQMKQRIAEENIMK [K2R], the protein stability index falls from 5.07 to 5.03.

Going from KKREKQREQMLQMKQRIAEENIMK [E11L] to KKREKQREQMHQMKQRIAEENIMK [E11H], the protein stability index rises from 3.96 to 4.62.

First: KKREKQREQMGQMKQRIAEENIMK [E11G]
Second: KKREKQREQMDQMKQRIAEENIMK [E11D]
The protein stability index of the first is lower: 4.48 for the first, 5.03 for the second.

First: KKREKQREQMVQMKQRIAEENIMK [E11V]
Second: KKREKQREQMSQMKQRIAEENIMK [E11S]
The protein stability index of the first is higher: 4.66 for the first, 4.41 for the second.

Going from KKREKQREQMQQMKQRIAEENIMK [E11Q] to KKREKQREQMPQMKQRIAEENIMK [E11P], the protein stability index rises from 4.68 to 4.74.

First: KKREKQREQMNQMKQRIAEENIMK [E11N]
Second: KKREKQREQMMQMKQRIAEENIMK [E11M]
The protein stability index of the first is higher: 4.86 for the first, 4.17 for the second.

First: KKREKQREQMYQMKQRIAEENIMK [E11Y]
Second: KKREKQREQMTQMKQRIAEENIMK [E11T]
The protein stability index of the first is lower: 4.25 for the first, 4.57 for the second.

Compared with KKREKQREQMWQMKQRIAEENIMK [E11W], KKREKQREQMRQMKQRIAEENIMK [E11R] is higher in protein stability index: 3.9 for the first, 4.49 for the second.

Compared with KKREKQREQMCQMKQRIAEENIMK [E11C], KKREKQREQMIQMKQRIAEENIMK [E11I] is higher in protein stability index: 4.13 for the first, 4.4 for the second.

Compared with KKREKQREQMFQMKQRIAEENIMK [E11F], KKREKQREQMKQMKQRIAEENIMK [E11K] is higher in protein stability index: 4.15 for the first, 4.5 for the second.

First: KKRECQREQMEQMKQRIAEENIMK [K5C]
Second: KKRERQREQMEQMKQRIAEENIMK [K5R]
The protein stability index of the first is higher: 5.05 for the first, 4.62 for the second.

Going from KKREFQREQMEQMKQRIAEENIMK [K5F] to KKREHQREQMEQMKQRIAEENIMK [K5H], the protein stability index rises from 4.8 to 5.12.

First: KKREVQREQMEQMKQRIAEENIMK [K5V]
Second: KKREDQREQMEQMKQRIAEENIMK [K5D]
The protein stability index of the first is higher: 4.96 for the first, 4.75 for the second.

Compared with KKREEQREQMEQMKQRIAEENIMK [K5E], KKRENQREQMEQMKQRIAEENIMK [K5N] is lower in protein stability index: 5.26 for the first, 5.25 for the second.

Going from KKREQQREQMEQMKQRIAEENIMK [K5Q] to KKREYQREQMEQMKQRIAEENIMK [K5Y], the protein stability index falls from 4.39 to 4.11.

Compared with KKREGQREQMEQMKQRIAEENIMK [K5G], KKREMQREQMEQMKQRIAEENIMK [K5M] is higher in protein stability index: 4.55 for the first, 4.95 for the second.

Compared with KKRELQREQMEQMKQRIAEENIMK [K5L], KKRETQREQMEQMKQRIAEENIMK [K5T] is higher in protein stability index: 4.68 for the first, 5.16 for the second.

Compared with KKREPQREQMEQMKQRIAEENIMK [K5P], KKREAQREQMEQMKQRIAEENIMK [K5A] is lower in protein stability index: 5.34 for the first, 4.38 for the second.

First: KKREIQREQMEQMKQRIAEENIMK [K5I]
Second: KKREWQREQMEQMKQRIAEENIMK [K5W]
The protein stability index of the first is higher: 4.76 for the first, 4.46 for the second.

First: KKRESQREQMEQMKQRIAEENIMK [K5S]
Second: KKREKQREIMEQMKQRIAEENIMK [Q9I]
The protein stability index of the first is higher: 4.92 for the first, 4.01 for the second.

First: KKREKQREAMEQMKQRIAEENIMK [Q9A]
Second: KKREKQREVMEQMKQRIAEENIMK [Q9V]
The protein stability index of the first is higher: 4.86 for the first, 4.67 for the second.

First: KKREKQRERMEQMKQRIAEENIMK [Q9R]
Second: KKREKQREKMEQMKQRIAEENIMK [Q9K]
The protein stability index of the first is lower: 4.56 for the first, 4.93 for the second.

Compared with KKREKQREDMEQMKQRIAEENIMK [Q9D], KKREKQRELMEQMKQRIAEENIMK [Q9L] is lower in protein stability index: 4.96 for the first, 4.92 for the second.

Compared with KKREKQREHMEQMKQRIAEENIMK [Q9H], KKREKQREYMEQMKQRIAEENIMK [Q9Y] is lower in protein stability index: 4.68 for the first, 4.51 for the second.

Compared with KKREKQRETMEQMKQRIAEENIMK [Q9T], KKREKQRENMEQMKQRIAEENIMK [Q9N] is higher in protein stability index: 4.72 for the first, 4.8 for the second.

Compared with KKREKQREGMEQMKQRIAEENIMK [Q9G], KKREKQRECMEQMKQRIAEENIMK [Q9C] is lower in protein stability index: 4.75 for the first, 4.73 for the second.

Compared with KKREKQREEMEQMKQRIAEENIMK [Q9E], KKREKQRESMEQMKQRIAEENIMK [Q9S] is lower in protein stability index: 5.18 for the first, 4.74 for the second.

Going from KKREKQREMMEQMKQRIAEENIMK [Q9M] to KKREKQREWMEQMKQRIAEENIMK [Q9W], the protein stability index falls from 4.4 to 4.13.

Compared with KKREKQREFMEQMKQRIAEENIMK [Q9F], KKREKQREPMEQMKQRIAEENIMK [Q9P] is higher in protein stability index: 4.16 for the first, 4.89 for the second.

Compared with KKREKQRGQMEQMKQRIAEENIMK [E8G], KKREKQRIQMEQMKQRIAEENIMK [E8I] is lower in protein stability index: 4.85 for the first, 4.51 for the second.

Compared with KKREKQRWQMEQMKQRIAEENIMK [E8W], KKREKQRFQMEQMKQRIAEENIMK [E8F] is higher in protein stability index: 3.68 for the first, 4.29 for the second.

Compared with KKREKQRTQMEQMKQRIAEENIMK [E8T], KKREKQRDQMEQMKQRIAEENIMK [E8D] is higher in protein stability index: 4.31 for the first, 4.63 for the second.

First: KKREKQRYQMEQMKQRIAEENIMK [E8Y]
Second: KKREKQRSQMEQMKQRIAEENIMK [E8S]
The protein stability index of the first is lower: 4.23 for the first, 4.41 for the second.

Going from KKREKQRAQMEQMKQRIAEENIMK [E8A] to KKREKQRHQMEQMKQRIAEENIMK [E8H], the protein stability index falls from 4.96 to 3.74.
